Source: WO2018083240A1 (dated 2018)
Positions count from the first letter of the chain named. One block for each binder: values may come before it.

What was measured:
[1] = target: Screening Peptide DDR1_HUMAN(788-808)[pY796] (human); test: ELISA, biotinylated peptide on streptavidin plate, 30 ul transfection supernatant
[2] = target: Screening Peptide DDR1_HUMAN(788-808)[pY796] (human); test: SPR (Biacore T200), antibody captured by goat anti-rabbit Fc, peptide as analyte, 25 C; value of Table 3 as repeated in the description
[3] = target: T1, Screening Peptide DDR1_HUMAN(788-808) (human, N-terminal Glu(Bi-PEG) (residue 1 of the letters given); C-terminal amide (-NH2)); test: ELISA, biotinylated peptide on streptavidin plate, 30 ul transfection supernatant
T1 construct: The leading E stands for the printed Glu(Bi-PEG), which is not part of DDR1 788-808; also called non-phosphorylated screening peptide
T1 peptide: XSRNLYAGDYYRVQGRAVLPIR

OD 405 [1]: 3.12 OD 405 | Kd [2]: 0.051 nM | OD 405 [3]: 0.286 OD 405
B1: rabbit monoclonal anti-pY796-DDR1 antibody 22D9 (antibody, V domains shown)
VH: QSVEESGGRLVTPGTPLTLTCKVSGFSLSNYHMIWVRQAPGKGLEWIGIISRRGTTWYASWVKGRFTISKSSTTVDLKITSPTTEDTATYFCARGGVDSSYRDLWGPGTLVTVSS
VL: QVLTQTPSSVSAAVGGTVTINCQSNQRVANVNCLAWYQQKPGQPPKLLIYDASSLASGVPSRFSGSGSGTQFTLSISGVQCGDAATYYCQGTYATFGASAWYGDAFGGGTEVVVE
notes: Full-length rabbit IgG (150 kDa), expressed in HEK293 cells; Same variable domains as 31A5; also called clone 22D9

OD 405 [1]: 2.98 OD 405 | OD 405 [3]: 0.253 OD 405
B2: rabbit monoclonal anti-pY796-DDR1 antibody 31A5 (antibody, V domains shown)
VH: B1 VH
VL: B1 VL
notes: Full-length rabbit IgG (150 kDa), expressed in HEK293 cells; Same variable domains as 22D9; also called clone 31A5

OD 405 [1]: 3.06 OD 405 | Kd [2]: 0.038 nM | OD 405 [3]: 0.313 OD 405
B3: rabbit monoclonal anti-pY796-DDR1 antibody 20G11 (antibody, V domains shown)
VH: B1 VH with S71G
VL: B1 VL with N25S
notes: Full-length rabbit IgG (150 kDa), recombinantly expressed in HEK293 cells; also called clone 20G11
